Source: PMC9482650, “Quantitative fragmentomics allow affinity mapping of interactomes” (Nature Communications, 2022)

T1: APBA1_1, Q02410
T1 sequence (Q02410 651-752, limits assumed, looked up): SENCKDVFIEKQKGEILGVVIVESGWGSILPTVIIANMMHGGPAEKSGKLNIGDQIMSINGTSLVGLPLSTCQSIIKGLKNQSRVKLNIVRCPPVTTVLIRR

T2: APBA1_2, Q02410
T2 sequence (Q02410 742-832, limits assumed, looked up): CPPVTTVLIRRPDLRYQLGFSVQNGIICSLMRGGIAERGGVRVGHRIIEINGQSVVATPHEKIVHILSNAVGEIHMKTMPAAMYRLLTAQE

T3: APBA2_1, Q99767
T3 sequence (Q99767 563-664, limits assumed, looked up): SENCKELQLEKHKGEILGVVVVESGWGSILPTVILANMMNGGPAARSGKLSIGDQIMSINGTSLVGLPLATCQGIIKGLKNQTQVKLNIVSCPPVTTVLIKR

T4: APBA3_1, O96018
T4 sequence (O96018 389-490, limits assumed, looked up): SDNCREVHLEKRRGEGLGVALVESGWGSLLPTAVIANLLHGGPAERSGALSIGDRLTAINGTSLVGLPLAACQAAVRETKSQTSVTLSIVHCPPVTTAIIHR

T5: DFNB31_1, Q9P202
T5 sequence (Q9P202 135-233, limits assumed, looked up): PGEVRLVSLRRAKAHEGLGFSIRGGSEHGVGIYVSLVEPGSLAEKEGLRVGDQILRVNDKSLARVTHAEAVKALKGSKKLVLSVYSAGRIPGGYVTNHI

T6: FRMPD1, Q5SYB0
T6 sequence (Q5SYB0 52-145, limits assumed, looked up): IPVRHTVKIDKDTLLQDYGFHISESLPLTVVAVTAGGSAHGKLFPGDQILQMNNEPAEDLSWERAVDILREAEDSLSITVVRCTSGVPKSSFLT

T7: GRIP1_7, Q9Y3R0
T7 sequence (Q9Y3R0 999-1096, limits assumed, looked up): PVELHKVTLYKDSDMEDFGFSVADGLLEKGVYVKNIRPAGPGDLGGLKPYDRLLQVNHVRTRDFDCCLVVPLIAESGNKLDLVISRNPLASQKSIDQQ

T8: LRRC7, Q96NW7
T8 sequence (Q96NW7 1440-1537, limits assumed, looked up): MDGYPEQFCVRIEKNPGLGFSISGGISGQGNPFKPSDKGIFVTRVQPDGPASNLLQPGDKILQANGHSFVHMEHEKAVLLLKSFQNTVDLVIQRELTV

T9: NHERF3_1, Q5T2W1
T9 sequence (Q5T2W1 4-100, limits assumed, looked up): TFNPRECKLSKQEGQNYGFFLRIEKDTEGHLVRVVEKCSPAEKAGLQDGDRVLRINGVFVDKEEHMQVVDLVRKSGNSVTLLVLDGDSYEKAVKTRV

T10: NHERF3_3, Q5T2W1
T10 sequence (Q5T2W1 238-333, limits assumed, looked up): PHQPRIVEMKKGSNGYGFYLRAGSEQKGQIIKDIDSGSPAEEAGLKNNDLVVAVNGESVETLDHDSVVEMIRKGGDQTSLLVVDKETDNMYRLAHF

T11: NHERF3_4, Q5T2W1
T11 sequence (Q5T2W1 373-468, limits assumed, looked up): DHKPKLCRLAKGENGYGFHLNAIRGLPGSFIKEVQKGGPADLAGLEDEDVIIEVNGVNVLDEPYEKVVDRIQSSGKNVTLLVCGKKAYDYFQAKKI

T12: PTPN13_1, Q12923
T12 sequence (Q12923 1088-1188, limits assumed, looked up): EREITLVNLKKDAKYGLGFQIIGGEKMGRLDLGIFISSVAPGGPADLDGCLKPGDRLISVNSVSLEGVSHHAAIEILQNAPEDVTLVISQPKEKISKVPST


Assays:
Assay in all cases: holdup assay
Design in all cases: key: below the threshold = too weak to quantify, mostly under pKd 3.1 to 4
Details in all cases: plain residues with an end cap or a label only (N-terminal biotin on a linker: ado-ado)
APBA1_1, Q02410 = biological target: T1, APBA1_1, Q02410
APBA1_2, Q02410 = biological target: T2, APBA1_2, Q02410
APBA2_1, Q99767 = biological target: T3, APBA2_1, Q99767
APBA3_1, O96018 = biological target: T4, APBA3_1, O96018
DFNB31_1, Q9P202 = biological target: T5, DFNB31_1, Q9P202
DLG1_1, Q12959 = biological target: DLG1_1, Q12959
DLG1_2, Q12959 = biological target: DLG1_2, Q12959
DLG1_3, Q12959 = biological target: DLG1_3, Q12959
DLG2_3, Q15700 = biological target: DLG2_3, Q15700
FRMPD1, Q5SYB0 = biological target: T6, FRMPD1, Q5SYB0
FRMPD3, Q5JV73 = biological target: FRMPD3, Q5JV73
FRMPD4, Q14CM0 = biological target: FRMPD4, Q14CM0
GRID2IP_1, A4D2P6 = biological target: GRID2IP_1, A4D2P6
GRIP1_7, Q9Y3R0 = biological target: T7, GRIP1_7, Q9Y3R0
GRIP2_7, Q9C0E4 = biological target: GRIP2_7, Q9C0E4
HTRA2, O43464 = biological target: HTRA2, O43464
IL16_4, Q14005 = biological target: IL16_4, Q14005
Inadl_2, Q8NI35 = biological target: Inadl_2, Q8NI35
Inadl_5, Q8NI35 = biological target: Inadl_5, Q8NI35
LRRC7, Q96NW7 = biological target: T8, LRRC7, Q96NW7
MAGI2_2, Q86UL8 = biological target: MAGI2_2, Q86UL8
MAGI2_3, Q86UL8 = biological target: MAGI2_3, Q86UL8
NHERF3_1, Q5T2W1 = biological target: T9, NHERF3_1, Q5T2W1
NHERF3_3, Q5T2W1 = biological target: T10, NHERF3_3, Q5T2W1
NHERF3_4, Q5T2W1 = biological target: T11, NHERF3_4, Q5T2W1
PTPN13_1, Q12923 = biological target: T12, PTPN13_1, Q12923

HTRA2, O43464, sequence (O43464 355-458): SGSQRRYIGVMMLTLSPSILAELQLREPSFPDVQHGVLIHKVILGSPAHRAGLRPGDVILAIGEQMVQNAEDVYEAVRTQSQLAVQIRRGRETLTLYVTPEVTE
IL16_4, Q14005, sequence (Q14005 1229-1329): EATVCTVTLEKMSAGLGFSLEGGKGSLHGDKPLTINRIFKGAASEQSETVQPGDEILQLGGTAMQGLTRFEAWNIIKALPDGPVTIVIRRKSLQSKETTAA
FRMPD4, Q14CM0, sequence (Q14CM0 67-160): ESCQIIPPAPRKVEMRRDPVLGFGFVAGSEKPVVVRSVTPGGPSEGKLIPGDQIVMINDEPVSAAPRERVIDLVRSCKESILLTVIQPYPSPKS
Inadl_5, Q8NI35, sequence (Q8NI35 673-780): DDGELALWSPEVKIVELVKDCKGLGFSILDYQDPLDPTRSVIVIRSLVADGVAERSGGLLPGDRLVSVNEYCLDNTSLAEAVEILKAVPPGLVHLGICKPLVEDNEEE
FRMPD3, Q5JV73, sequence (Q5JV73 12-100): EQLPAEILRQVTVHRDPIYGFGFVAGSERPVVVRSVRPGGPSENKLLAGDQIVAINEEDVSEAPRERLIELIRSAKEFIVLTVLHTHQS
MAGI2_2, Q86UL8, sequence (Q86UL8 410-522): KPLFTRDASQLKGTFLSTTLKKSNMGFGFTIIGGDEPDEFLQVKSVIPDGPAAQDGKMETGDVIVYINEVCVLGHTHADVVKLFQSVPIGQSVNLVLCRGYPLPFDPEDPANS
GRIP2_7, Q9C0E4, sequence (Q9C0E4 934-1023): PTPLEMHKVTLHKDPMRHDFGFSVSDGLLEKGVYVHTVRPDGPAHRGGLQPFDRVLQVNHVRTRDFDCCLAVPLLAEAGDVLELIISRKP
Inadl_2, Q8NI35, sequence (Q8NI35 238-335): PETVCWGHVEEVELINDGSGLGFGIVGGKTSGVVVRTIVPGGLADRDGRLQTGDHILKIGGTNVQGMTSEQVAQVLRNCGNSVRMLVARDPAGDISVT
GRID2IP_1, A4D2P6, sequence (A4D2P6 1-87): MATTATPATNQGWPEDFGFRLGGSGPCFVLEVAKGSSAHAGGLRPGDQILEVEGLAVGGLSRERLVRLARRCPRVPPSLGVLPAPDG
MAGI2_3, Q86UL8, sequence (Q86UL8 600-682): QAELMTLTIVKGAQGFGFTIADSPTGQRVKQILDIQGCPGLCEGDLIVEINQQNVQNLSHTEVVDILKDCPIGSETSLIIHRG

Binder | pKd (APBA1_1, Q02410) | pKd (APBA1_2, Q02410) | pKd (APBA2_1, Q99767) | pKd (APBA3_1, O96018) | pKd (DFNB31_1, Q9P202) | pKd (DLG1_1, Q12959) | pKd (DLG1_2, Q12959) | pKd (DLG1_3, Q12959) | pKd (DLG2_3, Q15700) | pKd (FRMPD1, Q5SYB0) | pKd (FRMPD3, Q5JV73) | pKd (FRMPD4, Q14CM0) | pKd (GRID2IP_1, A4D2P6) | pKd (GRIP1_7, Q9Y3R0) | pKd (GRIP2_7, Q9C0E4) | pKd (HTRA2, O43464) | pKd (IL16_4, Q14005) | pKd (Inadl_2, Q8NI35) | pKd (Inadl_5, Q8NI35) | pKd (LRRC7, Q96NW7) | further results
GSGAVEMESV [AQP6, Q13520] | below the threshold | 3.58 | below the threshold | below the threshold | below the threshold | below the threshold | below the threshold | below the threshold | below the threshold | below the threshold | below the threshold | below the threshold | below the threshold | below the threshold | below the threshold | below the threshold | below the threshold | below the threshold | below the threshold | below the threshold | pKd (MAGI2_2, Q86UL8): below the threshold; pKd (MAGI2_3, Q86UL8): below the threshold; pKd (NHERF3_1, Q5T2W1): below the threshold; pKd (NHERF3_3, Q5T2W1): below the threshold; pKd (NHERF3_4, Q5T2W1): below the threshold; pKd (PTPN13_1, Q12923): below the threshold
PPYRHRNTVV [ERBB4, Q15303] | below the threshold | 3.53 | below the threshold | below the threshold | 3.57 | 4.83 | 5.25 | 4.01 | 4.35 | below the threshold | below the threshold | below the threshold | 3.89 | below the threshold | below the threshold | below the threshold | below the threshold | below the threshold | 3.58 | below the threshold | pKd (MAGI2_2, Q86UL8): 4.6; pKd (MAGI2_3, Q86UL8): below the threshold; pKd (NHERF3_1, Q5T2W1): below the threshold; pKd (NHERF3_3, Q5T2W1): below the threshold; pKd (NHERF3_4, Q5T2W1): below the threshold; pKd (PTPN13_1, Q12923): below the threshold
RRISSLESEV [GRIN2C, Q14957] | below the threshold | 3.75 | below the threshold | below the threshold | 3.67 | 4.86 | 5.51 | 4.09 | 4.44 | below the threshold | below the threshold | below the threshold | below the threshold | below the threshold | below the threshold | below the threshold | below the threshold | below the threshold | below the threshold | 4.05 | pKd (MAGI2_2, Q86UL8): 4.58; pKd (MAGI2_3, Q86UL8): 4.11; pKd (NHERF3_1, Q5T2W1): 3.82; pKd (NHERF3_3, Q5T2W1): below the threshold; pKd (NHERF3_4, Q5T2W1): 3.66; pKd (PTPN13_1, Q12923): below the threshold
CLREWCDAFL [BANF1, O75531] | 3.72 | 3.75 | below the threshold | below the threshold | below the threshold | below the threshold | below the threshold | below the threshold | 3.61 | below the threshold | 3.66 | 4.72 | below the threshold | below the threshold | below the threshold | 3.91 | below the threshold | below the threshold | below the threshold | 3.84 | pKd (MAGI2_2, Q86UL8): below the threshold; pKd (MAGI2_3, Q86UL8): below the threshold; pKd (NHERF3_1, Q5T2W1): 4.78; pKd (NHERF3_3, Q5T2W1): below the threshold; pKd (NHERF3_4, Q5T2W1): 3.62; pKd (PTPN13_1, Q12923): 3.58
